Assay results as given in the supplement of paper PMC10567573.

B1: STK38L (parent)
chain: NWKETLVFPPEVPISEKAKDLILR
B2: CD69 (parent)
chain: FVAENSSLHPESGQENDATSPHFS

Variants of: B1
Assay: protein stability index of a GFP-peptide fusion (GPS, HEK-293T) (PSI 1-6); higher = more stable
Settings: c terminus: a fixed tail appended
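Note: lentivirally expressed fusions sorted by FACS into six bins by GFP to DsRed ratio, PSI derived from sequencing read proportions per bin multiplied by bin number.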

Variant	protein stability index
NWKETLVFPPEVPISEKAKDLALR	4.17
NWKETLVFPPEVPISEKAKDLCLR	3.07
NWKETLVFPPEVPISEKAKDLDLR	4.43
NWKETLVFPPEVPISEKAKDLELR	4.54
NWKETLVFPPEVPISEKAKDLFLR	2.79
NWKETLVFPPEVPISEKAKDLGLR	3.23
NWKETLVFPPEVPISEKAKDLHLR	3.68
NWKETLVFPPEVPISEKAKDLKLR	3.66
NWKETLVFPPEVPISEKAKDLLLR	3.21
NWKETLVFPPEVPISEKAKDLMLR	4.15
NWKETLVFPPEVPISEKAKDLNLR	3.62
NWKETLVFPPEVPISEKAKDLPLR	4.36
NWKETLVFPPEVPISEKAKDLQLR	3.88
NWKETLVFPPEVPISEKAKDLRLR	4.04
NWKETLVFPPEVPISEKAKDLSLR	3.89
NWKETLVFPPEVPISEKAKDLTLR	4.22
NWKETLVFPPEVPISEKAKDLVLR	3.06
NWKETLVFPPEVPISEKAKDLWLR	3.42
NWKETLVFPPEVPISEKAKDLYLR	3.51

Variant	protein stability index
NWKETLVFPPEVPISEKAKDLIAR	3.75
NWKETLVFPPEVPISEKAKDLICR	3.36
NWKETLVFPPEVPISEKAKDLIDR	4.92
NWKETLVFPPEVPISEKAKDLIER	4.15
NWKETLVFPPEVPISEKAKDLIFR	2.9
NWKETLVFPPEVPISEKAKDLIGR	4.47
NWKETLVFPPEVPISEKAKDLIHR	3.78
NWKETLVFPPEVPISEKAKDLIIR	3.24
NWKETLVFPPEVPISEKAKDLIKR	4.24
NWKETLVFPPEVPISEKAKDLIMR	2.6
NWKETLVFPPEVPISEKAKDLINR	4.09
NWKETLVFPPEVPISEKAKDLIPR	3.9
NWKETLVFPPEVPISEKAKDLIQR	4.22
NWKETLVFPPEVPISEKAKDLIRR	4.19
NWKETLVFPPEVPISEKAKDLISR	3.94
NWKETLVFPPEVPISEKAKDLITR	3.77
NWKETLVFPPEVPISEKAKDLIVR	3.27
NWKETLVFPPEVPISEKAKDLIWR	2.12
NWKETLVFPPEVPISEKAKDLIYR	2.99

Variant	protein stability index
NWKETLVFPPEVPISEKAKDLILA	3.09
NWKETLVFPPEVPISEKAKDLILC	2.16
NWKETLVFPPEVPISEKAKDLILD	4.32
NWKETLVFPPEVPISEKAKDLILE	3.57
NWKETLVFPPEVPISEKAKDLILF	2.13
NWKETLVFPPEVPISEKAKDLILG	3.9
NWKETLVFPPEVPISEKAKDLILH	3.16
NWKETLVFPPEVPISEKAKDLILI	1.88
NWKETLVFPPEVPISEKAKDLILK	3.6
NWKETLVFPPEVPISEKAKDLILL	2.03
NWKETLVFPPEVPISEKAKDLILM	2.64
NWKETLVFPPEVPISEKAKDLILN	3.96
NWKETLVFPPEVPISEKAKDLILP	3.43
NWKETLVFPPEVPISEKAKDLILQ	2.83
NWKETLVFPPEVPISEKAKDLILS	3.31
NWKETLVFPPEVPISEKAKDLILT	3.59
NWKETLVFPPEVPISEKAKDLILV	1.91
NWKETLVFPPEVPISEKAKDLILW	2.11
NWKETLVFPPEVPISEKAKDLILY	1.63

Variants of: B2
Assay: as above
Settings: c terminus: a fixed tail appended

Variant	protein stability index
AVAENSSLHPESGQENDATSPHFS	4.81
CVAENSSLHPESGQENDATSPHFS	5.02
DVAENSSLHPESGQENDATSPHFS	5.78
EVAENSSLHPESGQENDATSPHFS	5.62
GVAENSSLHPESGQENDATSPHFS	5.41
HVAENSSLHPESGQENDATSPHFS	4.98
IVAENSSLHPESGQENDATSPHFS	5.04
KVAENSSLHPESGQENDATSPHFS	5.78
LVAENSSLHPESGQENDATSPHFS	5.13
MVAENSSLHPESGQENDATSPHFS	5.49
NVAENSSLHPESGQENDATSPHFS	5.39
PVAENSSLHPESGQENDATSPHFS	5.51
QVAENSSLHPESGQENDATSPHFS	5.65
RVAENSSLHPESGQENDATSPHFS	5.12
SVAENSSLHPESGQENDATSPHFS	5.4
TVAENSSLHPESGQENDATSPHFS	5.58
VVAENSSLHPESGQENDATSPHFS	4.96
WVAENSSLHPESGQENDATSPHFS	5.2
YVAENSSLHPESGQENDATSPHFS	3.64
FAAENSSLHPESGQENDATSPHFS	4.94
FCAENSSLHPESGQENDATSPHFS	4.82
FDAENSSLHPESGQENDATSPHFS	5.18

Variant	protein stability index
FEAENSSLHPESGQENDATSPHFS	5.5
FFAENSSLHPESGQENDATSPHFS	5.13
FGAENSSLHPESGQENDATSPHFS	5.26
FHAENSSLHPESGQENDATSPHFS	4
FIAENSSLHPESGQENDATSPHFS	4.44
FKAENSSLHPESGQENDATSPHFS	5.4
FLAENSSLHPESGQENDATSPHFS	5
FMAENSSLHPESGQENDATSPHFS	4.87
FNAENSSLHPESGQENDATSPHFS	5.25
FPAENSSLHPESGQENDATSPHFS	5.46
FQAENSSLHPESGQENDATSPHFS	4.86
FRAENSSLHPESGQENDATSPHFS	5.36
FSAENSSLHPESGQENDATSPHFS	5.39
FTAENSSLHPESGQENDATSPHFS	5.17
FWAENSSLHPESGQENDATSPHFS	4.86
FYAENSSLHPESGQENDATSPHFS	4.84
FVCENSSLHPESGQENDATSPHFS	2.73
FVDENSSLHPESGQENDATSPHFS	2.95
FVEENSSLHPESGQENDATSPHFS	3.57
FVFENSSLHPESGQENDATSPHFS	3.02
FVGENSSLHPESGQENDATSPHFS	2.98
FVHENSSLHPESGQENDATSPHFS	3.03

Variant	protein stability index
FVIENSSLHPESGQENDATSPHFS	2.86
FVKENSSLHPESGQENDATSPHFS	2.95
FVLENSSLHPESGQENDATSPHFS	2.95
FVMENSSLHPESGQENDATSPHFS	3.11
FVNENSSLHPESGQENDATSPHFS	3.21
FVPENSSLHPESGQENDATSPHFS	2.41
FVQENSSLHPESGQENDATSPHFS	3.27
FVRENSSLHPESGQENDATSPHFS	2.88
FVSENSSLHPESGQENDATSPHFS	2.56
FVTENSSLHPESGQENDATSPHFS	3.12
FVVENSSLHPESGQENDATSPHFS	3.43
FVWENSSLHPESGQENDATSPHFS	2.82
FVYENSSLHPESGQENDATSPHFS	3.02
FVAANSSLHPESGQENDATSPHFS	2.85
FVACNSSLHPESGQENDATSPHFS	1.93
FVADNSSLHPESGQENDATSPHFS	2.61
FVAFNSSLHPESGQENDATSPHFS	2.18
FVAGNSSLHPESGQENDATSPHFS	3.99
FVAHNSSLHPESGQENDATSPHFS	2.5
FVAINSSLHPESGQENDATSPHFS	2.42
FVAKNSSLHPESGQENDATSPHFS	2.89
FVALNSSLHPESGQENDATSPHFS	2.9

Variant	protein stability index
FVAMNSSLHPESGQENDATSPHFS	2.1
FVANNSSLHPESGQENDATSPHFS	2.87
FVAPNSSLHPESGQENDATSPHFS	3.51
FVAQNSSLHPESGQENDATSPHFS	3.31
FVARNSSLHPESGQENDATSPHFS	2.17
FVASNSSLHPESGQENDATSPHFS	2.44
FVATNSSLHPESGQENDATSPHFS	2.37
FVAVNSSLHPESGQENDATSPHFS	3.2
FVAWNSSLHPESGQENDATSPHFS	3.23
FVAYNSSLHPESGQENDATSPHFS	2.39
FVAEASSLHPESGQENDATSPHFS	3.1
FVAECSSLHPESGQENDATSPHFS	2.5
FVAEDSSLHPESGQENDATSPHFS	4.57
FVAEESSLHPESGQENDATSPHFS	3.7
FVAEFSSLHPESGQENDATSPHFS	1.94
FVAEGSSLHPESGQENDATSPHFS	3.21
FVAEHSSLHPESGQENDATSPHFS	2.61
FVAEISSLHPESGQENDATSPHFS	2.16
FVAEKSSLHPESGQENDATSPHFS	2.69
FVAELSSLHPESGQENDATSPHFS	2.95
FVAEMSSLHPESGQENDATSPHFS	2.45
FVAEPSSLHPESGQENDATSPHFS	2.56

Variant	protein stability index
FVAEQSSLHPESGQENDATSPHFS	3.22
FVAERSSLHPESGQENDATSPHFS	2.16
FVAESSSLHPESGQENDATSPHFS	2.57
FVAETSSLHPESGQENDATSPHFS	2.77
FVAEVSSLHPESGQENDATSPHFS	2.96
FVAEWSSLHPESGQENDATSPHFS	1.99
FVAEYSSLHPESGQENDATSPHFS	2.87
FVAENASLHPESGQENDATSPHFS	2.96
FVAENCSLHPESGQENDATSPHFS	2.46
FVAENDSLHPESGQENDATSPHFS	4.33
FVAENESLHPESGQENDATSPHFS	4.05
FVAENFSLHPESGQENDATSPHFS	2.21
FVAENGSLHPESGQENDATSPHFS	3.37
FVAENHSLHPESGQENDATSPHFS	3.01
FVAENISLHPESGQENDATSPHFS	2.38
FVAENKSLHPESGQENDATSPHFS	2.72
FVAENLSLHPESGQENDATSPHFS	1.5
FVAENMSLHPESGQENDATSPHFS	2.55
FVAENNSLHPESGQENDATSPHFS	2.69
FVAENPSLHPESGQENDATSPHFS	2.58
FVAENQSLHPESGQENDATSPHFS	3.08
FVAENRSLHPESGQENDATSPHFS	2.27

Variant	protein stability index
FVAENTSLHPESGQENDATSPHFS	3.34
FVAENVSLHPESGQENDATSPHFS	2.48
FVAENWSLHPESGQENDATSPHFS	2.07
FVAENYSLHPESGQENDATSPHFS	2.85
FVAENSALHPESGQENDATSPHFS	3.13
FVAENSCLHPESGQENDATSPHFS	2.46
FVAENSDLHPESGQENDATSPHFS	4.39
FVAENSELHPESGQENDATSPHFS	4.06
FVAENSFLHPESGQENDATSPHFS	2.27
FVAENSGLHPESGQENDATSPHFS	3.29
FVAENSHLHPESGQENDATSPHFS	2.83
FVAENSILHPESGQENDATSPHFS	2.39
FVAENSKLHPESGQENDATSPHFS	2.51
FVAENSLLHPESGQENDATSPHFS	2.67
FVAENSMLHPESGQENDATSPHFS	2.22
FVAENSNLHPESGQENDATSPHFS	3.3
FVAENSPLHPESGQENDATSPHFS	3.11
FVAENSQLHPESGQENDATSPHFS	3.37
FVAENSRLHPESGQENDATSPHFS	2.13
FVAENSTLHPESGQENDATSPHFS	3.24
FVAENSVLHPESGQENDATSPHFS	2.73
